Target: IAEDANS labeled sarcoplasmic reticulum Ca-ATPase (SERCA) (rabbit (purified from rabbit skeletal muscle)) (UniProt P04191)
Test: FRET or BRET

Xb (fraction of SERCA bound to PLB) (mole fraction): 0.82
Substance: Dabcyl labeled monomeric AFA-PLB mutant (C36A/C41F/C46A) of phospholamban (peptide)
